Data reported in publication PMC4839733.

Target: SP-VSVG-hGLP-1RΔN23-GFP V36A (human) (UniProt P43220)
UniProt P43220, sequence (P43220 24-463 V36A): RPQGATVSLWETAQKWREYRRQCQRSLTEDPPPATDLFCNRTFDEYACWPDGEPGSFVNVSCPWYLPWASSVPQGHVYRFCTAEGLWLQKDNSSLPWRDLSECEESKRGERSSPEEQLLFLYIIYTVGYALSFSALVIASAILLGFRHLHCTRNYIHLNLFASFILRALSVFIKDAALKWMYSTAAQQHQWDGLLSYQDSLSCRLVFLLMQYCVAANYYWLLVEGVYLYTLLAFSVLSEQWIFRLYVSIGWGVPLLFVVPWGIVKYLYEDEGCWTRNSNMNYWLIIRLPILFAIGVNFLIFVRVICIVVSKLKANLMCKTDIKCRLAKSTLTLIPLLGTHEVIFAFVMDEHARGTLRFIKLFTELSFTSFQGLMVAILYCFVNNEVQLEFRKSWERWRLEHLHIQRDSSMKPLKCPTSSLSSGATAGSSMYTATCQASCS

agonist induced internalisation of hGLP-1R V36A (cell-surface ELISA with the anti-GLP-1R antibody, HEK293 cells): 12.4%
Substance: GLP-1 7–37 (liraglutide) (peptide)
